Assay results reported in US20160264649A1.

What was measured:
Experiment in all cases: cell-based or functional assay
[1] = target: HIV-1 MGRM-G-001 Env (HIV-1)
[2] = target: HIV-1 MGRM-AE-004 Env (HIV-1)
[3] = target: HIV-1 MGRM-D-022 Env (HIV-1)
[4] = target: HIV-1 LAVIC_18 Env on pseudovirus (HIV-1)
[5] = target: HIV-1 MGRM-C-006 Env on pseudovirus (HIV-1)
[6] = target: HIV-1 MGRM-Chronic-B-002 Env on pseudovirus (HIV-1)
[7] = target: HIV-1 MGRM-Chronic-B-017 Env on pseudovirus (HIV-1)
[8] = target: HIV-1 SC422661.8 (Acute) Env on pseudovirus (HIV-1)
[9] = target: HIV-1 MGRM-D-020 Env (HIV-1)
[10] = target: HIV-1 CAAN.A2 (Acute) Env on pseudovirus (HIV-1)
[11] = target: HIV-1 MGRM-D-021 Env (HIV-1)
[12] = target: HIV-1 98IN022 Env on pseudovirus (HIV-1)
[13] = target: HIV-1 MGRM-AG-001 Env (HIV-1)
[14] = target: HIV-1 MGRM-Chronic-B-018 Env on pseudovirus (HIV-1)
[15] = target: HIV-1 MGRM-AG-008 Env (HIV-1)
[16] = target: HIV-1 TRO.11 (Acute) Env on pseudovirus (HIV-1)
[17] = target: HIV-1 MGRM-D-013 Env (HIV-1)
[18] = target: HIV-1 IAVI-C3 Env (HIV-1)
[19] = target: HIV-1 MGRM-F1-014 Env (HIV-1)
[20] = target: HIV-1 TRJ0.58 (Acute) Env on pseudovirus (HIV-1)
[21] = target: HIV-1 NL43 Env on pseudovirus (HIV-1)
[22] = target: HIV-1 MGRM-D-028 Env (HIV-1)
[23] = target: HIV-1 MGRM-AG-003 Env (HIV-1)
[24] = target: HIV-1 MGRM-Chronic-B-020 Env on pseudovirus (HIV-1)
[25] = target: HIV-1 MGRM-F1-023 Env (HIV-1)
[26] = target: HIV-1 MGRM-C-017 Env on pseudovirus (HIV-1)
[27] = target: HIV-1 MGRM-D-014 Env (HIV-1)
[28] = target: HIV-1 MGRM-AE-003 Env (HIV-1)
[29] = target: HIV-1 92UG046 Env (HIV-1)
[30] = target: HIV-1 92BR020 Env on pseudovirus (HIV-1)
[31] = target: HIV-1 MGRM-D-018 Env (HIV-1)
[32] = target: HIV-1 6535.3 (Acute) Env on pseudovirus (HIV-1)
[33] = target: HIV-1 APV_13 Env on pseudovirus (HIV-1)
[34] = target: HIV-1 MGRM-D-029 Env (HIV-1)
[35] = target: HIV-1 LAVI_C22 Env on pseudovirus (HIV-1)
[36] = target: HIV-1 94UG114 Env (HIV-1)
[37] = target: HIV-1 MGRM-F1-012 Env (HIV-1)
[38] = target: HIV-1 MGRM-C-007 Env on pseudovirus (HIV-1)
[39] = target: HIV-1 PVO.4 (Acute) Env on pseudovirus (HIV-1)
[40] = target: HIV-1 QH0692.42 (Acute) Env on pseudovirus (HIV-1)
[41] = target: HIV-1 LAVI_C3 Env on pseudovirus (HIV-1)
[42] = target: aMLV envelope (negative control pseudovirus)
[43] = target: HIV-1 MGRM-Chronic-B-010 Env on pseudovirus (HIV-1)
[44] = target: HIV-1 MGRM-C-024 Env on pseudovirus (HIV-1)
[45] = target: HIV-1 MGRM-D-001 Env (HIV-1)
[46] = target: HIV-1 MGRM-D-019 Env (HIV-1)
[47] = target: HIV-1 MGRM-C-015 Env on pseudovirus (HIV-1)
[48] = target: HIV-1 MGRM-D-003 Env (HIV-1)
[49] = target: HIV-1 MGRM-AE-005 Env (HIV-1)
HIV-1 JRCSF Env (HIV-1) = HIV-1 JRCSF Env (HIV-1) (UniProt P20871)
[50] = target: HIV-1 MGRM-G-011 Env (HIV-1)
[51] = target: HIV-1 MGRM-D-026 Env (HIV-1)

## 2F5 (antibody)
[1]
  IC50 (µg/ml), pseudovirus neutralization: 4.1 µg/mL
[2]
  IC50 (µg/ml), pseudovirus neutralization: 0.98 µg/mL
[3]
  IC50 (µg/ml), pseudovirus neutralization: 8.45 µg/mL
[4]
  IC50: > 50 µg/mL
[5]
  IC50: > 50 µg/mL
[6]
  IC50: 1.25 µg/mL
[7]
  IC50: > 50 µg/mL
[8]
  IC50: > 50 µg/mL
[9]
  IC50 (µg/ml), pseudovirus neutralization: > 50 µg/mL
[10]
  IC50: 23.1 µg/mL
[11]
  IC50 (µg/ml), pseudovirus neutralization: > 50 µg/mL
[12]
  IC50: > 50 µg/mL
[13]
  IC50 (µg/ml), pseudovirus neutralization: 0.75 µg/mL
[14]
  IC50: 10.8 µg/mL
[15]
  IC50 (µg/ml), pseudovirus neutralization: 0.54 µg/mL
[16]
  IC50: > 50 µg/mL
[17]
  IC50 (µg/ml), pseudovirus neutralization: 2.12 µg/mL
[18]
  neutralization IC50: > 50 µg/mL
[19]
  IC50 (pseudovirus neutralization): 15.1 µg/mL
[20]
  IC50: > 50 µg/mL
[21]
  IC50: 2.02 µg/mL
[22]
  IC50 (µg/ml), pseudovirus neutralization: > 50 µg/mL
[23]
  IC50 (µg/ml), pseudovirus neutralization: 0.14 µg/mL
[24]
  IC50: 0.78 µg/mL
[25]
  IC50 (pseudovirus neutralization): 1.78 µg/mL
[26]
  IC50: > 50 µg/mL
[27]
  IC50 (µg/ml), pseudovirus neutralization: 2.22 µg/mL
[28]
  IC50 (µg/ml), pseudovirus neutralization: 0.24 µg/mL
[29]
  IC50 (µg/ml), pseudovirus neutralization: > 50 µg/mL
[30]
  IC50: > 50 µg/mL
[31]
  IC50 (µg/ml), pseudovirus neutralization: 4.05 µg/mL
[32]
  IC50: 2.76 µg/mL
[33]
  IC50: 3.81 µg/mL
[34]
  IC50 (µg/ml), pseudovirus neutralization: > 50 µg/mL
[35]
  IC50: > 50 µg/mL
[36]
  IC50 (µg/ml), pseudovirus neutralization: > 50 µg/mL
[37]
  IC50 (pseudovirus neutralization): > 50 µg/mL
[38]
  IC50: > 50 µg/mL
[39]
  IC50: > 50 µg/mL
[40]
  IC50: 5.42 µg/mL
[41]
  IC50: > 50 µg/mL
[42]
  IC50 (pseudovirus neutralization): > 50 µg/mL
[43]
  IC50: 0.96 µg/mL
[44]
  IC50: > 50 µg/mL
[45]
  IC50 (µg/ml), pseudovirus neutralization: 0.63 µg/mL
[46]
  IC50 (µg/ml), pseudovirus neutralization: 0.14 µg/mL
[47]
  IC50: > 50 µg/mL
[48]
  IC50 (µg/ml), pseudovirus neutralization: > 50 µg/mL
[49]
  IC50 (µg/ml), pseudovirus neutralization: 0.14 µg/mL
HIV-1 JRCSF Env (HIV-1)
  neutralization IC50: 3.36 µg/mL
  neutralization IC90: 25.3 µg/mL
[50]
  IC50 (µg/ml), pseudovirus neutralization: 1.16 µg/mL
[51]
  IC50 (µg/ml), pseudovirus neutralization: 4.37 µg/mL
